We go through 4 substances from doi:10.1101/2022.11.07.515412.

“And” between values parts separate entries of the source, which are not always exact repeats. Equal values may be shown once.

The target of test [1] is vinculin D1D2 (residues 1-484) (human) (UniProt P18206). Put plainly: native gel or EMSA.
The target of test [2] is vinculin D1 first subdomain (residues 1-257) (human) (UniProt P18206). Put plainly: native gel or EMSA. (Mobility shift assays separate free from complexed probe on a gel.)
Test [3] deals with full-length human vinculin (HV) (human) (UniProt P18206). Put plainly: solid-phase binding assay.
In test [4] the target is vinculin D1D2 (residues 1-484) (human) (UniProt P18206). Put plainly: SEC-MALS. In general terms: SEC sorts molecules by how far they enter the pores of the column.
In test [5] the target is vinculin D1D4 (residues 1-834) (human) (UniProt P18206). Put plainly: SEC-MALS.
The target of test [6] is vinculin D1 first subdomain (residues 1-257) (human) (UniProt P18206). Put plainly: SEC-MALS.
For test [7], the target named is vinculin D1D2 (residues 1-484) (human) (UniProt P18206). As to the kind of experiment: SEC-MALS. The source holds these as a separate data set.

A word on the stoichiometry N: it is the number of molecules, sites or subunits per partner or assembly. Usually EC50 stands for the concentration needed to bring the measured effect to its halfway point. Regarding “IpaA derivative containing VBS1-2 (AVBS1-2) (from UniProt P18010 1-633) (domain or fragment)”, the stoichiometry N in test [1] is 1 D1D2:AVBS1-2; in test [2], 1 D1:AVBS1-2; in test [4] it was 1 D1D2:AVBS1-2. This substance had an EC50 in test [3] of 3.7 nM.
Turning to “IpaA derivative containing VBS1-3 (AVBS1-3) (from UniProt P18010 1-633) (domain or fragment)”, the stoichiometry N is 1 D1D2:AVBS1-3 in test [1], 2 in test [1] (scale: AVBS1-3 per D1D2), 1 D1:AVBS1-3 in test [2] and 1 D1D4:AVBS1-3 in test [5]. Moreover, the stoichiometry N (D1D2:AVBS1-3 molar ratio) in test [1] was 3. In addition, in test [6], the stoichiometry N (molar ratio, printed as AVBS1-3:D1) is 1 and 2 and 3. For the same substance, the EC50 in test [3] stood at 6.1 nM.
On to “vinculin D1D2 (residues 1-484) (from UniProt P18206 1-484) (domain or fragment)”, for which the stoichiometry N in test [7] is 2 and 3; in test [4] it was 2.
For “vinculin D1D4 (residues 1-834) (from UniProt P18206 1-834) (domain or fragment)”, in test [5], the stoichiometry N was 2 and 3.
